In patent publication US20260167677A1, “ANTI-ADAM10 ANTIBODIES AND USES IN TREATMENT OF CANCER” (Memorial Sloan Kettering Cancer Center, priority 2022, published 2026):

Tested on: human APP
Experiment: Western blot of APP shedding in U2OS cells transfected with human APP
Format: cell-based
Details: 31 nM to 1 μM
Method: U2OS cells transiently transfected with human APP releases the extracellular portion of APP to the media.
The release of sAPPα in the presence of varying concentrations of IHigG/Fab (31 nM to 1 μM) was evaluated using Western blotting. The Western blots were quantitated using the software Image J and glyceraldehyde 3-phosphate dehydrogenase (GAPDH) as loading control. A vector control was included and U20S cells transfected with APP, but untreated, was used to calculate the fold increase in shedding.

B1: 1H5 Fab: Fab fragment of fully human anti-ADAM10 antibody 1H5 (antibody)
heavy: QVQLVESGGGLVKPGGSLRLSCAASGFTFSDYYMSWIRQAPGKGLEWVSYISSSGSTIYYADSVKGRFTISRDNAKNSLYLQMNSLRAEDTAVYYCARDFYDSKIFDYWGQGTLVTVSSASTKGPSVFPLAPSSKSTSGGTAALGCLVKDYFPEPVTVSWNSGALTSGVHTFPAVLQSSGLYSLSSVVTVPSSSLGTQTYICNVNHKPSNTKVDKKVEPKSCDKT
light: DIQMTQSPSSLSASVGDRVTITCRASQSISSYLNWYQQKPGKAPKLLIYAASSLQSGVPSRFSGSGSGTDFTLTISSLQPEDVGVYYCMEGLKTPFTFGPGTKLEIKRTVAAPSVFIFPPSDEQLKSGTASVVCLLNNFYPREAKVQWKVDNALQSGNSQESVTEQDSKDSTYSLSSTLTLSKADYEKHKVYACEVTHQGLSSPVTKSFNRGEC
sAPPα shedding: increase
